Assay [1] concerns the target SARS-CoV-2 spike protein, European type SD614G (SARS-CoV-2, UniProt P0DTC2 14-1273). The experiment in a line: cell-based or functional assay.
For assay [2], the target named is spike protein of SARS-CoV-2 mutant strain B.1.351 (SARS-CoV-2). Kind of assay: cell-based or functional assay.

This note sets out measurements from patent US20230312689A1 (NATIONAL UNIVERSITY CORPORATION KUMAMOTO UNIVERSITY, published 2023).

B1: CTMA9-105 (antibody, V domains shown)
VH: EVQLVESGGGLIQPGGSLRLSCAASGITVSSNYMSWVRQAPGKGLEWVSLIYSGGSTYYADSVKGRFTISRDNSKNTLYLQMNSLRAEDTAVYYCARDLEEAGGMDVWGQGTTVTVSS
VL: DIVMTQSPGTLSLSPGERATLSCRASQSVPSIYLAWYQQRPGQAPRLLIYGASSRATGIPDRFSGSGSGTDFTLTISRLEPEDFAVYYCQQYGSSPGTFGQGTKVEIK
Consider B1, for which, in assay [1], the “neutralizing activity (IC50 value), pseudovirus, 293F/ACE2/TMPRSS2 cells” value was 0.0035 µg/mL; the “neutralizing activity (IC50 value), pseudovirus, Caco-2 cells” value was 0.92 ng/mL; the “neutralizing activity (IC50 value), pseudovirus, Calu-3 cells” value was 0.0019 µg/mL. The “IC50, pseudovirus neutralization, 293FT/DSP/ACE2/TMPRSS2 cells” value in assay [2] is 0.021 µg/mL.

B2: CSSA10-121 (antibody, V domains shown)
VH: EVQLVESGGGLIQPGGSLRLSCAASGLTVSRNYMSWVRQAPGRGLEWVSLIYSGGSTYYADSVKGRFTISRDSSKNTLYLQMNSLRAEDTAVYYCARPIVGARAGMDVWGQGTTVTVSS
VL: DIRMTQSPSSLSASVGDRVTITCQASQDISNYLNWYQQKPGKAPKLLIYDASNLETGVPSRFSGSGSGTDFTFTISSLQPEDIATYYCQQYDNLPVTFGQGTRLEIK
Turning to B2, in assay [1], the “neutralizing activity (IC50 value), pseudovirus, 293F/ACE2/TMPRSS2 cells” value came to 0.018 µg/mL; the “neutralizing activity (IC50 value), pseudovirus, Caco-2 cells” value came to 15 ng/mL; the “neutralizing activity (IC50 value), pseudovirus, Calu-3 cells” value was found to be 0.12 µg/mL.
